Data as given in patent US20250320295A1 (INHIBRX BIOSCIENCES, published 2025).
Blank lines part the entries; values can stand above or below the binder they belong to.

Experiments:
Human CD8a [1] = molecular target: T1, Human CD8a (human, UniProt P01732 22-235); assay: flow cytometry, HEK293F cells transfected with full-length human CD8a (GFP+ gate)
T1 construct: also called CD8α; human CD8a-FL
Protocol: (§1) Binding of parental and two of the humanized CD8a-binding polypeptides described above was assessed by flow cytometry on transfected HEK293F cells. The HEK293F cells were transiently transfected with a plasmid encoding full length human or cynomolgus monkey CD8α followed by an IRES and GFP. The transfected cells were plated in a 96-well plate at 30,000 cells per well in FACS buffer (PBS, 1% BSA, 0.1% NaN₃, pH 7.4). Test polypeptides were then diluted to 2× the final concentration of 500 nM and 3-, 4-, and 5-fold serial dilutions were made. FACS buffer with no polypeptide was used as a secondary antibody-only control. Test polypeptides were added to an equal volume of cells, and assay plates were incubated for 30 minutes at 4° C. After washing twice with 150 μL of FACS buffer per well, the cells were resuspended in FACS buffer with fluorescently-labeled anti-human Fc antibody diluted 1:2000. Assay plates were incubated at 4° C. for 20 minutes. After one additional wash with 150 μL of FACS buffer, bound polypeptide was detected by flow cytometry. Flow cytometric detection was performed on an Intellicyt iQue Plus. CD8a-expressing transfected cells were gated as GFP positive, and polypeptide binding was measured as median fluorescence at 647 nm. The data was plotted and analyzed using GraphPad Prism analysis software.

Human CD8a [2] = molecular target: T1, Human CD8a; assay: flow cytometry, isolated human T cells, CD4- gate, anti-human Fc detection
Protocol: FACS buffer with no polypeptide was used as a secondary antibody-only control. Polypeptide dilutions were added to an equal volume of cells, and assay plates were incubated for 30 minutes at 4° C. […] Assay plates were incubated at 4° C. for 20 minutes. […] The data was plotted and analyzed using GraphPad Prism analysis software. Flow cytometric detection was performed on an Intellicyt iQue Plus.

Cynomolgus monkey CD8a [3] = molecular target: T2, Cynomolgus monkey CD8a (cynomolgus monkey); assay: flow cytometry, HEK293F cells transfected with full-length cynomolgus CD8a (GFP+ gate)
T2 construct: whole, on cells; On transfected HEK293F cells (full length) or natively on cynomolgus PBMC T cells; also called cynomolgus CD8a-FL; cynomolgus monkey CD8α
Protocol: as §1

Cynomolgus monkey CD8a [4] = molecular target: T2, Cynomolgus monkey CD8a; assay: flow cytometry, cynomolgus PBMC, CD3+CD4- gate
Protocol: (§2) Binding of parental and two humanized CD8a-binding polypeptides described above was assessed by flow cytometry on isolated human T cells and on isolated cynomolgus monkey PBMC. The isolated cells were plated in a 96-well plate at 200,000 cells per well for cynomolgus monkey PBMC, and 50,000 cells per well for human T cells in FACS buffer (PBS, 1% BSA, 0.1% NaN₃, pH 7.4). […] FACS buffer alone was used as a secondary antibody-only control. Polypeptide dilutions were added to an equal volume of cells, and assay plates were incubated for 30 minutes at 4° C. After washing twice with 150 μL of FACS buffer per well, the cells were resuspended in FACS buffer with fluorescently-labeled anti-human antibody diluted 1:1000 to detect CD8α binding, and fluorescently labeled anti-CD3 antibody (clone SP34.2) diluted 1:40, and anti-CD4 antibody (clone OKT4) diluted 1:100. Assay plates were incubated at 4° C. for 20 minutes. After one additional wash with 150 μL of FACS buffer, CD8α binding was detected by flow cytometry on CD3+CD4− cells. Binding was measured on these cell populations as mean fluorescence at 647 nm. The data was plotted and analyzed using GraphPad Prism analysis software. Flow cytometric detection was performed on an ACEA Biosciences Novocyte-Quanteon Flow Cytometer. The results are shown in Table 6 and 7 and in FIGS. 4A-B.

Human CD8a [5] = molecular target: T1, Human CD8a; assay: flow cytometry, isolated human T cells, CD3+CD4- gate
Protocol: as §2

IL-2 receptor = molecular target: T3, IL-2 receptor (human, UniProt P01589 22-272; P14784 27-551; P31785 23-369); assay: cell-based or functional assay
T3 sequence (looked up) 1: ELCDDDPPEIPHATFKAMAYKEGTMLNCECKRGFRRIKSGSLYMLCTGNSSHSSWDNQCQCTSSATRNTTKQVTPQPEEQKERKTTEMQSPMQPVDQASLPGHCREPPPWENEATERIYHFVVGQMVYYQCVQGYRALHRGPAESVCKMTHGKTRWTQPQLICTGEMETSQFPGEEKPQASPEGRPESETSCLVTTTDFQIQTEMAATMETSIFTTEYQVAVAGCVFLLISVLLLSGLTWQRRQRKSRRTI
T3 sequence (looked up) 2: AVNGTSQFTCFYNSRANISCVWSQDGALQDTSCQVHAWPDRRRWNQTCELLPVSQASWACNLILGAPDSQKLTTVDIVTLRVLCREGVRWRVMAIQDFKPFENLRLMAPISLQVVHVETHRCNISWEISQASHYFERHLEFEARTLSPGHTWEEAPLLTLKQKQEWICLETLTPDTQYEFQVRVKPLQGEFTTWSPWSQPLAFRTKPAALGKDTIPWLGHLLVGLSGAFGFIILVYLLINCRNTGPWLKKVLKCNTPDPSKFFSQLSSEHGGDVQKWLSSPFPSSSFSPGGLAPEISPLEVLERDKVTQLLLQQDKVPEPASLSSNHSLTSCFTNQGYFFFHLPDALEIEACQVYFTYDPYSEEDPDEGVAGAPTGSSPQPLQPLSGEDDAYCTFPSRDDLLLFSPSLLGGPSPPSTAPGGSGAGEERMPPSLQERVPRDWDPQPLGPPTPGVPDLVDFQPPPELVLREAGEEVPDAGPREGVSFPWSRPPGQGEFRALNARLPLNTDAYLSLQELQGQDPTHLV
T3 sequence (looked up) 3: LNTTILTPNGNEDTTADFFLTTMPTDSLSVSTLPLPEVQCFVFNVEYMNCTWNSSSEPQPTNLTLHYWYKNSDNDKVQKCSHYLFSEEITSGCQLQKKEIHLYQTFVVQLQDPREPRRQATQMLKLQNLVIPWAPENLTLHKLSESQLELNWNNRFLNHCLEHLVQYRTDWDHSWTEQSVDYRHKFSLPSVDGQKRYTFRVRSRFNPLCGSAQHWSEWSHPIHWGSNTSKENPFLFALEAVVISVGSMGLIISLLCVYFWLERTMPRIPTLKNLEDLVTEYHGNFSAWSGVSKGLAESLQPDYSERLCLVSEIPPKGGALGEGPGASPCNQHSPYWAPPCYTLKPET

Cynomolgus monkey CD8a [6] = molecular target: T2, Cynomolgus monkey CD8a; assay: flow cytometry, cynomolgus PBMC, PI-CD3+CD4- gate
Protocol: (§3) Binding of four polypeptides comprising a humanized CD8a-binding VHH domain fused to an xELL fc region was assessed by flow cytometry on isolated human T cells and on isolated human or cynomolgus monkey peripheral blood mononuclear cells (PBMC). The isolated cells were plated in a 96-well plate at 200,000 cells per well for cynomolgus monkey PBMC, and 100,000 cells per well for human T cells in FACS buffer (PBS, 1% BSA, 0.1% NaN₃, pH 7.4). […] FACS buffer alone was used as a secondary antibody-only control. Polypeptide dilutions were added to an equal volume of cells, and assay plates were incubated for 30 minutes at 4° C. After washing twice with 150 μL of FACS buffer per well, the cells were resuspended in FACS buffer with a fluorescently labeled anti-human IgG antibody diluted 1:1000 to detect CD8α binding, fluorescently labeled anti-CD3 antibody (clone SP34.2, 1:50, for PBMC preparations only), and fluorescently labeled anti-CD4 antibody (clone OKT4, 1:100). Propidium iodide (PI) was added at 1:2000 to distinguish live cells from dead cells. Assay plates were incubated at 4° C. for 30 minutes. After one additional wash with 150 μL of FACS buffer CD8α binding was detected by flow cytometry on PI−(CD3+) CD4− cells. Binding was measured on these cell populations as mean fluorescence intensity (MFI) at 647 nm. Flow cytometric detection was performed on an ACEA Biosciences Novocyte-Quanteon Flow Cytometer. The data were plotted and analyzed using GraphPad Prism analysis software. The results are shown in Table 12 and 13 and in FIGS. 10A-D.

Cynomolgus monkey CD8a [7] = molecular target: T2, Cynomolgus monkey CD8a; assay: flow cytometry on CD8 T cells (PI- CD3+ CD4-) within cynomolgus monkey PBMC, fluorescent anti-human IgG secondary, MFI at 647 nm
Protocol: as §3, with “Flow cytometric detection was performed on an ACEA Biosciences Novocyte-Quanteon Flow Cytometer.” left out, “The results are shown in Table 12 and 13 and in FIGS. 10A-D.” left out

T1 sequence (P01732 22-235): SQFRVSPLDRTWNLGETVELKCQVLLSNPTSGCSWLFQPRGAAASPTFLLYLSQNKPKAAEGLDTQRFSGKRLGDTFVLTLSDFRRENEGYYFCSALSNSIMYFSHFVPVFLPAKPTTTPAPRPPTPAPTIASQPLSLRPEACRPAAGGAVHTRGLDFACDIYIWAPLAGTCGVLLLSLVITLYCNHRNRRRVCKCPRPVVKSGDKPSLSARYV

Kd (Human CD8a [1]): 0.565 nM | Kd (Human CD8a [2]): 0.106 nM | Kd (Cynomolgus monkey CD8a [3]): 0.0973 nM | Kd (Cynomolgus monkey CD8a [4]): 0.0737 nM | Kd (Human CD8a [5]): 0.085 nM
B1: hzB7v10-xELL-Fc (Fc fusion)
chain: EVQLVESGGGEVQPGGSLRLSCAASGFTFDDYAMSWVRQAPGKGLEWVSTITWEGEGTDYAESVKGRFTISRDNAKNTVYLQMSSLRAEDTAVYYCAKGSPELQYDSWGQGTLVTVKPGGDKTHTCPPCPAPGGPSVFLFPPKPKDTLMISRTPEVTCVVVDVSHEDPEVKFNWYVDGVEVHNAKTKPREEQYNSTYRVVSVLTVLHQDWLNGKEYKCKVSNKALPAPIEKTISKAKGQPREPQVYTLPPSRDELTKNQVSLTCLVKGFYPSDIAVEWESNGQPENNYKTTPPVLDSDGSFFLYSKLTVDKSRWQQGNVFSCSVMHEALHNHYTQKSLSLSPGK
notes: Homodimeric VHH-human IgG1 Fc xELL fusion

EC50 of pSTAT5 induction in human CD8 T cells (IL-2 receptor): < 30 pM
B2: hzB7v31-xELL-KiH Fc-IL-2 mutant (Fc fusion)
chain 1: QVQLVQSGGGEVQPGGSLRLSCAASGFTFDDYAMSWVRQAPGKGLEWVSTITWDAGGTYYAAPVKGRFTISRDNAKNTVYLQMSSLRAEDTAVYYCAKGSPELQYDTWGQGTLVTVKPDKTHTCPPCPAPGGPSVFLFPPKPKDTLMISRTPEVTCVVVDVSHEDPEVKFNWYVDGVEVHNAKTKPREEQYNSTYRVVSVLTVLHQDWLNGKEYKCKVSNKALPAPIEKTISKAKGQPREPQVCTLPPSRDELTKNQVSLSCAVKGFYPSDIAVEWESNGQPENNYKTTPPVLDSDGSFFLVSKLTVDKSRWQQGNVFSCSVMHEALHNRYTQKSLSLSPGK
chain 2: QVQLVQSGGGEVQPGGSLRLSCAASGFTFDDYAMSWVRQAPGKGLEWVSTITWDAGGTYYAAPVKGRFTISRDNAKNTVYLQMSSLRAEDTAVYYCAKGSPELQYDTWGQGTLVTVKPDKTHTCPPCPAPGGPSVFLFPPKPKDTLMISRTPEVTCVVVDVSHEDPEVKFNWYVDGVEVHNAKTKPREEQYNSTYRVVSVLTVLHQDWLNGKEYKCKVSNKALPAPIEKTISKAKGQPREPQVYTLPPCRDELTKNQVSLWCLVKGFYPSDIAVEWESNGQPENNYKTTPPVLDSDGSFFLYSKLTVDKSRWQQGNVFSCSVMHEALHNHYTQKSLSLSPG

Kd (Cynomolgus monkey CD8a [6]): 0.0389 nM | EC50 (read off the curve) (Cynomolgus monkey CD8a [7]): ~0.05 nM
B3: hzB7v31-xELL-Fc (Fc fusion)
chain: QVQLVQSGGGEVQPGGSLRLSCAASGFTFDDYAMSWVRQAPGKGLEWVSTITWDAGGTYYAAPVKGRFTISRDNAKNTVYLQMSSLRAEDTAVYYCAKGSPELQYDTWGQGTLVTVKPDKTHTCPPCPAPGGPSVFLFPPKPKDTLMISRTPEVTCVVVDVSHEDPEVKFNWYVDGVEVHNAKTKPREEQYNSTYRVVSVLTVLHQDWLNGKEYKCKVSNKALPAPIEKTISKAKGQPREPQVYTLPPSRDELTKNQVSLTCLVKGFYPSDIAVEWESNGQPENNYKTTPPVLDSDGSFFLYSKLTVDKSRWQQGNVFSCSVMHEALHNHYTQKSLSLSPGK
notes: Homodimeric VHH-human IgG1 Fc xELL fusion; also called CD8a-hzB7v31-Fc-xELL
